Measurements from the supplement of paper PMC12636428.

System: Saccharomyces cerevisiae
Test: transcriptional activation domain activity (GFP:mCherry ratio, weighted mean of sorted bins, harmonized to initial dataset scale) (arbitrary fluorescence ratio units); higher = stronger transcriptional activation
Settings: beta-estradiol 1 µM; induction time 4 h
In short: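 Activation activity, the read-weighted mean of bin median fluorescence averaged across barcodes, was linearly mapped onto the scale of the initial dataset. It was measured for barcoded protein tiles fused to an estradiol-inducible synthetic transcription factor at URA3 in GFP-reporter yeast diploids. Cultures diluted 1:5 into SC with 1 uM beta-estradiol were held 4 hours at 30 °C, sorted into 8 bins by GFP:mCherry ratio, and barcode-sequenced, and tiles under 50 reads were discarded.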

Row | Sequence | transcriptional activation domain activity
1 | VDILLKRISTFSYTDSLTMSVAGQLRILYRFINVFYTARDLIGFLALVEKALD | 22700
2 | VLLVVMFFGVLHKRNATHLWNLLYFQGLFWILAATMTELPSVVCLPYSPPLRC | 57400
3 | MSLPIHRLLSYTCSIIYLLVHHLYFVFSFFIPVYFIQAQFFFAAFPFILFFIC | 66900
4 | LSSYLLKNALDVFCKYLPHVSKPVETVFKVKRKYSWMVLFLLYCILTHTNYHC | 26800
5 | KLGPTPQCLDGFFFFSLLALASLHPVSPCLLFFFFFLLWFPSSFFWPSVLQVQ | 62500
6 | DRNYKRVAKQVGFTIDRKRGDDLRHFPIERARLEIIWPLLYTGLACILCYGWA | 70900
7 | YLYLCLQLLYYCRYCVFAIYTCHLPFAYTCMLMLLATGPYFYGLFICLRYLCC | 24900
8 | MIWCSFLLALSWSYFCDLPCFFFFFFFFFFFFFFFADIYCSFLSFKLITPISF | 52600
9 | MILNGELERCRESLHIVSEYVHSILRLNVLCLRLLYRRMDPSREPVDLFEVAV | 54500
10 | SQSRSRSASRSRSPPRKREKRDSSDREDSRDRRRNKSESRSRSRSPAKSAGSA | 16300
11 | TLLFQIVIAFIDILRHLSLYKIEIENDTICALVGASMNFSDHIYVAFNTLLAI | 49500
12 | PYIAYPLKPCLSGPLCELYPSTSNLWAMCLHLILVCIQVPFLLSTPFWLLLPL | 74200
13 | IPPLVLFFHFHFPSCGGCAFCRCLFLCLLLLALSLPLIPVSLIMCYPCHMYLL | 41100
14 | MLETRFINNLVPLYRFLLPFYIFFFFSIYCYYLTIDPHYFSLSSMVFFFSCCT | 57600
15 | GKEKKDGEAAAPAAANHAPAEASAPAQTSSRPEGGERGRGRGRGHKGERGGAG | 43200
16 | RADHARRKSPARSRSASASSRSSSRSRSGSRGSDQANRRRRAASPGAQGDGRK | 39900
17 | DHFDAPEPWSMFWYDPALDGTWWDQLPLDHFFPSELGAWASARSSWTDLTGSY | 155000
18 | APSSSAAADGLTSPKPTGTRAALRSILREEGAAGLLRGLSPRVAKVAPACGMM | 42700
19 | TDRGGRRGKDYDPADRRHRRRGSSSSSDDRRRSRSRSKSRTRKAAETAAVAGV | 59200
20 | LTEHSNVNSVIWTNDLLNLNFTNILNMGLYINPKNLIPISGNNNNNKSNEEDD | 62300
21 | EREKKKGREKEEKGGKERRGKKGRGKEEGKKRRKRGRKERKEGRKGEEGKRGR | 33600

Row | Sequence | transcriptional activation domain activity
22 | DGDEEDAKDGRKKKKKKRLPKSPIGNPGEKLGFVILGAQHAREWVATSAALYL | 35700
23 | GAVARAAHAAAPAGVRAAAPAPAGVHALAPAGAHALVHAPARAGPARALVLAG | 48800
24 | KIHLVNLAQVTVFFIHRLLYGIIPLFEIATCAYYPFLVSLWHINYLLFYIVMF | 42000
25 | HAQGEGEYKAAQAEGYAEGTQDRFGGKKDAVIGALTGDRKQEASGTLIPRLKL | 34400
26 | MSTSSIVMCSLFLIVRTSTFLLTFIFPNSLPLMGYRLRVFFVWYVDFYGWIFT | 57600
27 | KDLKDGTRAPGDESERIVVEELDMERVALDRTLGRLWRSWKKRIRSPTEPSFG | 34300
28 | GEEGEMSLTKDDLVELLEQDDNGWCRRSAPPARNRPVPAKPAATTNTVRASPV | < 6570
29 | MVFFFFGRRGGCLVGFVVLLSFPLSFFLSFKLCLLLPLYYYSICVFFFSCVFF | 55600
30 | RDAKERGEGKRKREERDSRRSERGEEDGKRRRESSADRDPDRKRSRRRRKDRD | 40900
31 | GTGRSSDDVSSGAGSEEVSQTLDEKMAEEQKGRQRLNNIIQQFYIKGALVIVG | 67400
32 | ESDEEAAVEAEAPKKKGRAKKVKPESEVDHEPAFEQPKKKGRAAKAKIQPAEE | 15400
33 | STVHNLCELVFLPELFGFCCFSMRFFVFIDLLGTLILPATVVYLLYLIITVAT | 62500
34 | EGEREREREGEEMEEVMREGTNREEKKEEEEEGKRKDKRRKETGNLLLLLVVV | 40400
35 | MSPPCIVLKHLLFFLFSFHRILLQPVRRPSCFHISLYVLVVRLYWFRGILDFC | 38300
36 | GEIVQIDLPLYGKSGQNRGKAALEYSDSLSAQKAASHMTGGQIDGAVVKVELS | 66000
37 | MPVVKLMAEPFLFLFLFYLSVLALAFFYFFYFFYFFFLKILPGMMVFSSLGCF | 55500
38 | MVFFLYISLLIFFFTATIAALPCMVWWILAVHCWLFIFLDPLAFFYYSFFPFF | 26300
39 | VMFHGKQMKNFLIDINSFTNQQQQAQDNPSFLPLDIEQSSYDLSEDAMSYPII | 115000
40 | VYLCNVNLSIFKSVLSWVGVCTALYGCITIMPIFRHDSPYHTPLSFLAWHIVI | 63600
41 | KNASFNDADLLSSSYWIKAYNDHLFSVSESDETSPMNSELNDTKLIVPDFKST | 69100
42 | LSRAGTGGRAGTAKEAGEAAGGGEQQGEEAGGKEEAGAGAEGEAENGTGGKRN | 23400

Row | Sequence | transcriptional activation domain activity
43 | RLYLKGVVLTLWSLDTIHLICVCHALYWYLITNFLNAFVLEKLAWYRGWCPSH | 68600
44 | MFCLRSWLPLLFIPTSASPVFIFLFFVCTYFLNRPCVYCSFLLLILFLTSCNW | 30800
45 | ESSEEDEEGGEGEGRKAKRNRMALSCKECKRRKIKCDRAMPSCGPCSKRGASS | 27200
46 | SFNLLLYGCVLADIGINLSFSCAVSYSHNRKASDVPHILELLFICMLQCCYIG | 60000
47 | TRHLHFTRYHIFTNSKCILLAVGKLLYCACALGWYGLIVGFVVTVLMLCQDSL | 22600
48 | EDEASQPAKPRARPAPSRAQNRSKEKSSKTARKRKDKSPPASQQEPEQDEGSE | 18600
49 | SGFPSVGFNFFLFFSMMQPAMFLVSLFFQSLFFLCLNTCVCFFGFNFFFLVHW | 34800
50 | FPFSLLVLLIFYVFSFVFVICYMGILGAQYVYFYFSYIFDCHPLPLLRRLSFF | 36900
51 | MKGIRLYFKYVLLHVLLLPPSLLPFFFPLSPLFYMSILMGFSSPFFFFFSFIH | 53000
52 | LVLLFSLYPLLLPLLPLFPFLLSLFLPLPLNLPKIPAAFFFVFLNIYFLFSIL | 27700
53 | GLHFERRLFHLLFSTVCISICFCLLVFNLLIQNYMKKADQKEGMAAFAEKRKP | 28000
54 | MTGIFFFFFLLFLFLQLGIGTVFERLLSFQFPNYILFPILPPLHPSSPPFFTY | 38600
55 | SCFIFLGHHFDVFVSFLLKIGLGDEMLGVLWFFFSCVLLVGAFLLRLLGFYHT | 67900
56 | MGRLGTLGLSQEQLDNLRYYKYAAVDRSQLTKYVLRHYWNWAITLFPTWIAPN | 32100
57 | MAHRFWTLQLFGNIYIIQFLGCIGFGLSLWILMHLINMIEVRNQTIQLSMLFA | 62800
58 | NFMNNEITASKIDDGNNSKPLSPGWTDQTAYNAFGITTGMFNTTTMDDVYNYL | 120000
59 | LQKYTQLSLLAKPLINLSNHSIQYQTLQSWYFKTLQSLEANRFRNFMLCHRIL | 62300
60 | KLTLADLAPSPMAYRLWMFISGLYSLVDPFVRPLVRTYFAACLRLLIRWVPGI | 59400
61 | MGFDQALGLKLSPSSSGLLSTNESNAIEQFLDNLISQDMMSSNASMNSESHLH | 76500
62 | MTLTLHPCAQTQFLTAFYCIYCHLTWRCSLLILINMGLGLIQRYVFPLLTFLF | 43400
63 | MFGKRFIYCLSIIDYGISPHEGITGFILCVCVVYFLECGFCYCWHSRRTSMSW | 64400

Row | Sequence | transcriptional activation domain activity
64 | GAGGGITSNGGGKPAAAAEGAKPASEAPKEASKPEGAKPASESPKPEGEKPAA | 27600
65 | SEIALSSSTHSLRLYGKSVGGGKVAGMVRMAYSAKSGVTVKVSVRSEEGGLAG | 37500
66 | AVPGEVTEAEADSDVKTDDAAAAPATDEAAKPKKKKKKFARKPRRKAAAPAEG | 17100
67 | SLLVLCECLLMTIGVVFTTPHVDFIYRCVNTVTPTTMVYFVVCVLFNHLVILL | 73100
68 | MHILFLSLFFCFTLRFSLILLFGVIWLVKAFKYCHLVYWKLITYFNLLIFALY | 54800
69 | AAAAGVPIASDESETEVEEEGSSSADIGQAATTGRGRSPPKQQQQQQSVAAVS | 38500
70 | AFVNFIYVEDLLNFARTKLGVKWYFSHNLCIYVITHLLHRNMFSSEKVLQMSY | 83400
71 | HAQPRAGDSTRPQESASSSDRPADASGEGGGISKKKKAKRSAAKEEGAGAEDP | 37300
72 | GKRAREESDEENDEEEEAEGEGAEKEGEEEEEEEEVKKPAAKRARTAKGAAAK | 13500
73 | GKRGSRGRGRGKGGKKKGKGREGAEEGEGGSRGRGEGGGKTGEGGRESRRRGE | 37600
74 | FKLNTVTNLNEIDFTNIFTKSPHPHSGSTHPRQVFDQLDDCSSILFSPLTTNT | 67700
75 | PAAEEVAAAPAHEEPALPKHEELEIEEADEPVHRAAPAERATAAPAAAPVKAP | 29700
76 | AVPCVVIVRNSLLIIILLPLELPLVMYVGSSNDCRGILLFYLFWFWSLRAIAV | 68600
77 | LHKRLEVTAYITCTRVIQRVVWFLLQGKYRLDYYWEEVWRALLNLLDFISNKI | 71300
78 | RKSELIAKYGLLPRDLRKIDSSVLPHILVRHSAILISLLHLRVLIKADRVLVF | 57200
79 | DKQLDYEFIDKSGIIPSDNQSHPRISNIHDNAIDMVTLKNGEEVAISWYDISH | 59800
80 | TAPAPEAAAEPAPAAEAEAPAAETAEAPKEEAKDEKKPEKEKKVSRRLSSRVT | 32400
81 | MGGGVYVCRSGAVYLFWVLLFYGLMFLTVDVITYLLAYLTLPMYLFFLLLVSF | 39200
82 | TSCFSFLVFSFIFLSLGIMMWSLGQELLWYFVFFCLVWIFLLVVCLFIIEYSE | 32500
83 | AAPVAEAAPATEAAPASEPSTEAEVPKEEKTEDKKEEKAPKSPKIGRRLSSRV | 17000
